From the nanobody polyreactivity screen of Harvey et al. (2022)

Assay: yeast display, Sf9 membrane polyspecificity reagent, FACS + sequencing; frameworks hold sequencing errors
Outline: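 A nanobody's polyreactivity label depends on the gate it was sorted from. Yeast display cells were stained with 10% biotinylated, detergent-solubilized Sf9 membrane reagent for 1 hour at 4 °C, enriched on streptavidin microbeads and sorted by FACS. The low and high (top ~1%) gates were set on anti-HA fluorescence for expression and streptavidin fluorescence for reagent binding.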

For “QVQLVESGGGLVPARGSLRLSCAASGRTFGPYAMGWYRQAPGKERELVAAITDTGSGTYYADSVKGRFTISRDNSKNTVYLQMNSLKPVDTAVYYCNAVRKYWGQGTQVTVSS”, which “polyreactivity (PSR sort gate)” value is on record?
Its value is “low polyreactivity”.

Which “polyreactivity (PSR sort gate)” value does the source give for “QVQLVESGGGLVQAGGSLRLSCAASGIIFEYYAMGWYRQAPGKERELVAAISKRGGSTYYADSVKGRFTISRDNAKNTVYLQMNSLKPEDTAVYYCNARRWWVIRDYWGQGTQVTVSS” here?
The value was “high polyreactivity”.

With “QVQLVESGGGLVQAGGSHRLSCAASGSTFVLYALGWYRQAPGKERELVAVISWSGGSTYYADSVKGRFTISRDNAKNTVYLQMNSLKPEDTAVYYCAATGWSSFYYRFDYWGQGTQVTVSS” as the sequence, how does the “polyreactivity (PSR sort gate)” value read?
The value was “low polyreactivity”.

With “QVQLVESGGGLVQAGGSLRLSCAASGSTFLYNAMGWYRQAPGKERELVAAITIGGGSTYYADSVKGRFTISRDNAKNTVYLQMNSLKPEDTAVYYCNKGSYYWWDPGSTYIDDNWGQGTQVTVSS” as the sequence, how does the “polyreactivity (PSR sort gate)” value read?
Its value is “low polyreactivity”.

For “QVQLVESGGGLVQAGGSLRLSCAASGTTFSGNAMGWYRQAPGKERELVAAITRSGSRTYYADSVKGRFTISRDNAKNTVYLQMHSLKPEDTAVYYCAKVGRTGDDYYYWGQGTQVTVSS”, which “polyreactivity (PSR sort gate)” value is on record?
The value was “high polyreactivity”.

For “QVQLVESGGGLVQAGGSLRLCCAAYGSIFARNSMGWYRHAPGKERELVAVITTGGRTYYADSVKGRFTISRDNAKNTVYLQMNSMKPEDTAVYYCATRVIYGNSGGYWGKGTQVTVSS”, which “polyreactivity (PSR sort gate)” value is on record?
Its value is “high polyreactivity”.

With “QVQLVESGGGLVQAGGSLRLSCAASGSIFGYYAMGWYRQAPGKERELVAAISRRGGSTYYADSVKGRFTISRDNAKNTVYLQMNSLKPEDTAVYYCAAVGGYASYFHLYYYWGQGTQVTVSS” as the sequence, how does the “polyreactivity (PSR sort gate)” value read?
Its value is “high polyreactivity”.

For “QVQLVESGGGLVQAGGSLRLSCAASGIIFDGYVMGWYRQAPGNERELVAAISRSGGRTFYADSVKGRFTISRDNAKNTVYLQMNSLKPEATAVYYCAARRVRTRGYNYWGQGTQVTVSS”, which “polyreactivity (PSR sort gate)” value is on record?
The value was “high polyreactivity”.

With “QVQLVESGGGLVQAGGSLRLSCAASGRIFEYNAMGWYRQAPGKERELVAAITSDGSTNYADSVKGRFTISRDNEKNTVYLQMNSLKPEDTAVYYCNTRYSLYTKYAYYDEHDYWGQGTQVTVSS” as the sequence, how does the “polyreactivity (PSR sort gate)” value read?
Its value is “low polyreactivity”.

For “QVQLVESGGGLVQAGRSLRLSCAASGRIFVPYVMGWYRQAPGKERELVASISDSDTSTYYADSVKGRFTISRDNAKNTVYVQMNSLKPEDTAVYYCNVDYWGQGTQVTVSS”, which “polyreactivity (PSR sort gate)” value is on record?
Its value is “low polyreactivity”.

With “QVQLVESGGGLVQAGGSLRLSCAASGSIIDQYVMGWYRQAPGKERELVADISIRGGSTYYADSVKGRFTISRDNAKNTVYFQMNSLKPEDTAVYYCNADEWWGYPWEEDDYWGQGTQVTVSS” as the sequence, how does the “polyreactivity (PSR sort gate)” value read?
The value was “low polyreactivity”.

With “QVQLVESGGGLVQAGGSLRLSCAASGSTFFVYDMGWYRQAPGKERELVAAISSDTSTNYADSVKGRFTISRDNAKNTVYLQMNSLKPEDTAVYYCNADSYWEYDYWGQGTQVTVSS” as the sequence, how does the “polyreactivity (PSR sort gate)” value read?
The value was “low polyreactivity”.

Which “polyreactivity (PSR sort gate)” value does the source give for “QVQLVESGGGLVQAGGSLRLSCAASGFIFSLYAMGWYRQAPGKERELVAAITRGGSTKYADSVKGRFTISRDNAKNTVYLQMNSLKPEDTAVYYCAARYNGKLNWGQGTQVTVSS” here?
The value was “high polyreactivity”.

For “QVQLVESGGGLVQAGGSLRLSCAASGFIFSYAMGWYRQAPGKERELVAAISKSGGRTYYADSVKGRFTISRDNAKNTVYLQMNSLIPEDTAVYYCAVRDLHLSNARYNYWGQGSQVTVSS”, which “polyreactivity (PSR sort gate)” value is on record?
The value was “high polyreactivity”.

Which “polyreactivity (PSR sort gate)” value does the source give for “QVQLVESGGGLVQAGGSLRLSCAASGSTFNRYAMGWYRQAPGKARELVATNNSGTSTNYADSVKGRFTISRDNAKNTVYLQKNSLKPEDTAVYYCAKTFRRSVGGYGYEYWGQGTQVTVSS” here?
The value was “low polyreactivity”.

For “QVQLQESGGGLVLAGGSLRLSCAASGSISAQAYMGWDRQAPGKEREHVAGINYGDNTNYADSVKGRFTISRDNEHRVSADEQPETGRYRGVLLRGFLELFYYYIYWGQGTQVTVSS”, which “polyreactivity (PSR sort gate)” value is on record?
Its value is “high polyreactivity”.

With “QVQLVESGGGLVQAGGSLRLSCAASGRIFDLNTMGWYRQAPGKERELVAAISSGGSTYYADSVNGRFTISRDNAKNTVYIQMNSLKPEDTAVYYCADAKIRGYLIRMYWGQRTQVTVSS” as the sequence, how does the “polyreactivity (PSR sort gate)” value read?
The value was “low polyreactivity”.

For “QVQLVESGGGLVQAGGSLRLSCDASGLTFTRNAMGWYRPAPGKERELVAAITSTGSTNYADSVKGRFTISRDNAKNTVYLQMNSLKPEDTAVYYCNARNAYYDDNYWGQGTQVTVSS”, which “polyreactivity (PSR sort gate)” value is on record?
The value was “low polyreactivity”.

Which “polyreactivity (PSR sort gate)” value does the source give for “QVQLVESGGGLVQAGGSLRLSCAASGSTFSDNAMGWYRQAPGKDRELVAAINYSDGSTNYADSVKGRFTISRDNAKNTVYLQMNSLKPEDTAVYYCAVDIYFWCYGWWGPYDYWGQGTQVTVSS” here?
The value was “low polyreactivity”.

For “KVQLVESGGGLVQAGGSLRLSCAPSGSIFPLNARGWYSQAPGKERELVAAISESGGRTYYADSVKGRFTISRDNAKNTVYLQMNSLNPADTAVYHCATVRLARKSAPYDYWGQGTQVTVSS”, which “polyreactivity (PSR sort gate)” value is on record?
Its value is “high polyreactivity”.

For “QVQLVESGGGLVQAGGSLRLSCAASGSTSYYYAMGWYRQAPGKERELVAAITTSGGSTYYADSVKGRFTISRDNAKNTVYLQMNSLKPEDTAVYYCATGYLYFTSYRYNYWGQGTQVTVSS”, which “polyreactivity (PSR sort gate)” value is on record?
The value was “low polyreactivity”.

For “QVQHVESGGGLVQARGSLRLSCAASGFTFLAYAMGWYRQAPGKERELVAAINSSDCTTHYADSVKGRFTISRDYAKNTVYLQMNSLKPVDTAVYYCNTDWAYLSDYWGQGTQVTVSS”, which “polyreactivity (PSR sort gate)” value is on record?
The value was “low polyreactivity”.
